# T1: karyopherin β2 (human, UniProt Q92973 1-898)
# T1 sequence: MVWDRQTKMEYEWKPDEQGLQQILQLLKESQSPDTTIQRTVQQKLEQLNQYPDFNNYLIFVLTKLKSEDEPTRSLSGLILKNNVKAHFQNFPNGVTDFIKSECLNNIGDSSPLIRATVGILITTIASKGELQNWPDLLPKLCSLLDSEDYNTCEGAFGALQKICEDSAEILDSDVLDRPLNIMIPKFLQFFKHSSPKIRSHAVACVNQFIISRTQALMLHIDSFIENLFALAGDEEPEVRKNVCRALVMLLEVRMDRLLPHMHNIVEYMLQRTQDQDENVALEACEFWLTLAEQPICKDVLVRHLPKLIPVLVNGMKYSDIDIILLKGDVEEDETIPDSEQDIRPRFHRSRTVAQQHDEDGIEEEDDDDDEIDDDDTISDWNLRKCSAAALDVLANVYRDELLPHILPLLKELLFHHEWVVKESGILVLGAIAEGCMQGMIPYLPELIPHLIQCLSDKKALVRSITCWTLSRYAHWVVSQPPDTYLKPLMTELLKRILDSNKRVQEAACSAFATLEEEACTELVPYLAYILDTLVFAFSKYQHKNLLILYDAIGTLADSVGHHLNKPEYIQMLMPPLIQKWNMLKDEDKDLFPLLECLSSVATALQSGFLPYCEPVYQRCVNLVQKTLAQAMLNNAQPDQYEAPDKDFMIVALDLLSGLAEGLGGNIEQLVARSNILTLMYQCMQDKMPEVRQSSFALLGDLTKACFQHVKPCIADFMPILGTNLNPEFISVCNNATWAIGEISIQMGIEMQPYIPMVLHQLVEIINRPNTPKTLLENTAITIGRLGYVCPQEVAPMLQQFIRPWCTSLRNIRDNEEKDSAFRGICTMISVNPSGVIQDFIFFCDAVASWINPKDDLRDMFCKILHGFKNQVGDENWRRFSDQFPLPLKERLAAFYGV
# Molecular target: T1, karyopherin β2
# Test: ITC
binder,measurement,value
"hsNXF1 fragment, residues 1-92 (domain or fragment) MADEGKSYSEHDDERVNFPQRKKKGRGPFRWKYGEGNRRSGRGGSGIRSSRLEEDDGDVAMSDAQDGPRVRYNPYTTRPNRRGDTWHDRDRI",Kd,54 nM

# From article PMC3226482 (Molecular Biology of the Cell, 2011)
